T1: human TIGIT protein (human, UniProt Q495A1 22-141, limits assumed)
T1 construct: Recombinant protein (Genentech) used in ELISA screening and as SPR analyte; also called TIGIT antigen
T1 sequence: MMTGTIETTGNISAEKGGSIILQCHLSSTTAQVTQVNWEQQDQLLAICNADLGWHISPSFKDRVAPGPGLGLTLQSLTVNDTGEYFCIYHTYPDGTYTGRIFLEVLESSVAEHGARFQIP


How the values were obtained:
[1] = target: T2, cynomolgus monkey (cyno) TIGIT protein (cynomolgus monkey, UniProt A0A7N9I9V4 89-209); assay: SPR, against h7E7.L1H1 (implied)
Experimental: (§1) Briefly, a series S CM5 biosensor chip was activated with N-ethyl-N′-(3-dimethylaminopropyl)-carbodiimide hydrochloride (EDC) and N-hydroxysuccinimide (NHS) reagents according to the supplier's (GE Healthcare Biosciences, Piscataway, N.J.) instructions, and a human antibody capture kit was applied to couple goat anti-human Fc IgGs in order to achieve approximately 10,000 response units (RU) on each flow cell, followed by blocking un-reacted groups with 1M ethanolamine.
(§2) (flow rate: 30 μl/min) with no regeneration between injections. The sensorgrams were recorded and evaluated by BIAcore™ T200 Evaluation Software (version 2.0) after subtraction of reference cell signal. Association rates (kₒₙ) and dissociation rates (koff) were calculated using a simple one-to-one Langmuir binding model. The equilibrium dissociation constant (KD) was calculated as the ratio koff/kₒₙ.
(§3) The first humanized versions, h6B2, L1H1, h10A5.L1H1, h7E7, L1H1, and h15C8.L1H1, which contain both rat CDRs and framework residues at Vernier positions, and the fully humanized versions, h6B2.L2H5, h10A5.L4H4, h7E7.L5H9, and h15C8.L5H9, which contain only rat CDRs were subject to BIAcore affinity measurement by comparison with original rat antibodies, rat6B2, rat10A5, rat7E7 and rat 15C8. For binding affinity determinations of TIGIT antibodies against human TIGIT, cynomolgus monkey TIGIT and human alanine-scanned TIGIT mutants by single-cycle kinetics, Surface Plasmon Resonance (SRP) measurement with a BIACORE™-T200 instrument was used, as described above.

human TIGIT protein [2] = target: T1, human TIGIT protein; assay: SPR, against h7E7.L1H1 (implied)
Experimental: as §1, §2, §3

[3] = target: T2, cynomolgus monkey (cyno) TIGIT protein; assay: SPR, against h15C8.L1H1 (implied)
Experimental: as §1, §2, §3

human TIGIT protein [4] = target: T1, human TIGIT protein; assay: SPR, against h15C8.L1H1 (implied)
Experimental: as §1, §2, §3

[5] = target: T2, cynomolgus monkey (cyno) TIGIT protein; assay: SPR, captured mAb
human TIGIT protein [6] = target: T1, human TIGIT protein; assay: SPR, captured mAb

T2 sequence (A0A7N9I9V4 entry or part of it): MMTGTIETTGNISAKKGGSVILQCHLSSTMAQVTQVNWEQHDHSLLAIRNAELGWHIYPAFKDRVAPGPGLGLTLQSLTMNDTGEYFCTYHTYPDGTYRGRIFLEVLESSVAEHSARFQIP

fold drop in binding affinity [1] [fold]	fold drop in binding affinity (human TIGIT protein [2]) [fold]	fold drop in binding affinity [3] [fold]	fold drop in binding affinity (human TIGIT protein [4]) [fold]	Kd [5] [µM]	Kd (human TIGIT protein [6]) [µM]	Binder
		> 100	> 100			h15C8.L1H9 (antibody, V domains shown, VH: all seven Vernier residues back to human; FR/HVR pieces) VH: EVQLVQSGAEVKKPGASVKVSCKASGYTFTEHSIYWVRQAPGQRLEWMGRIDPKNGRTYFVDKFKNRVTITRDTSASTAYMELSSLRSEDTAVYYCARIDGFYFDFWGQGTLVTVSS VL: DIQLTQSPSFLSASVGDRVTITCKGSQNVNKYLVWYQQKPGKAPKLLIYSTDNLQSGIPSRFSGSGSGTEYTLTISSLQPEDFATYFCYQYNNGFTFGQGTKVEIK
		> 100	> 100	> 0.1	> 0.1	h15C8.L5H9 (antibody, V domains shown, Fully humanized version; FR/HVR pieces) VH: EVQLVQSGAEVKKPGASVKVSCKASGYTFTEHSIYWVRQAPGQRLEWMGRIDPKNGRTYFVDKFKNRVTITRDTSASTAYMELSSLRSEDTAVYYCARIDGFYFDFWGQGTLVTVSS VL: DIQLTQSPSFLSASVGDRVTITCKGSQNVNKYLVWYQQKPGKAPKLLIYSTDNLQSGVPSRFSGSGSGTEFTLTISSLQPEDFATYYCYQYNNGFTFGQGTKVEIK

The remaining lines, values behind:

Binder	fold drop in binding affinity [1] [fold]	fold drop in binding affinity (human TIGIT protein [2]) [fold]	fold drop in binding affinity [3] [fold]	fold drop in binding affinity (human TIGIT protein [4]) [fold]	Kd [5] [µM]	Kd (human TIGIT protein [6]) [µM]
h7E7.L1H9 (antibody, V domains shown, VH: all seven Vernier residues back to human; FR/HVR pieces) VH: EVQLVQSGAEVKKPGASVKVSCKASGYTFTEYSIYWVRQAPGQRLEWMGRIDPKNGRTYYVDKFKNRVTITRDTSASTAYMELSSLRSEDTAVYYCARIYGFYFDFWGQGTLVTVSS VL: DIQLTQSPSFLSASVGDRVTITCKGSQNVNKYLVWYQQKPGKAPKLLIYNTDNLQSGIPSRFSGSGSGTEYTLTISSLQPEDFATYFCYQYNNGFTFGQGTKVEIK	> 100	> 100				
h15C8.L1H3 (antibody, V domains shown, VH: I47W against h15C8.L1H1; FR/HVR pieces) VH: EVQLVQSGAEVKKPGASVKVSCKASGYTFTEHSIYWLRQAPGQRLEWIGRIDPKNGRTYFVDKFKNRATLTTDTSASTAYMELSSLRSEDTAVYFCARIDGFYFDFWGQGTLVTVSS VL: DIQLTQSPSFLSASVGDRVTITCKGSQNVNKYLVWYQQKPGKAPKLLIYSTDNLQSGIPSRFSGSGSGTEYTLTISSLQPEDFATYFCYQYNNGFTFGQGTKVEIK			> 100	> 100		
